Measured values published in patent US20020051974.
Like-named read-outs stand apart in the source and are kept apart here.

Assays:
[1] = tested on: T1, VEGF (vascular endothelial growth factor), P15692-4; assay: filter; details: 50% of RNA bound, PBS
T1 sequence: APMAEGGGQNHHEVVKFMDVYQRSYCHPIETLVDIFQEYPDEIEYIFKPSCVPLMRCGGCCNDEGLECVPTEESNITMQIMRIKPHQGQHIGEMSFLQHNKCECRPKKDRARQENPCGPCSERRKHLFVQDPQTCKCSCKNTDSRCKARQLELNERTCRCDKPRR

[2] = tested on: T1, VEGF (vascular endothelial growth factor), P15692-4; details: CITED Jellinek et al 1994, cited from earlier work

GGGAAUGGAUCCACAUCUACGAAUUCGGGAACAGCUCUAUUCCGCGCACGUUUGAGUUCACUGCAGACUUGACGAAGCUU [V04]
EC50 ([1]; 1 mM MgCl2, room temperature): 4.52 nM

GGGAAUGGAUCCACAUCUACGAAUUCCGCGCACGUCACGGGCCGACACGAAUAUGGUUCACUGCAGACUUGACGAAGCUU [V10]
EC50 ([1]; 1 mM MgCl2, room temperature): 31.4 nM

GGGAAUGGAUCCACAUCUACGAAUUCUGUAAGAUUGGUCUCCAGACUGCCGAGCUGUUCACUGCAGACUUGACGAAGCUU [V18]
EC50 ([1]; 1 mM MgCl2, text gives 8.5): 8.52 nM

GGGAAUGGAUCCACAUCUACGAAUUCAGGUGGAAAGCAAGUUCCGCGCACGUUAAUUUCACUGCAGACUUGACGAAGCUU [V08]
EC50 ([1]; 1 mM MgCl2, room temperature): 14.4 nM

GGGAGCUCAGAAUAAACGCUCAAGACCCAUCGUCAACGGUUGAGUCUGUCCCGUUCGACAUGAGGCCCGGAUCCGGC [VEGF40 (RNA transcript of printed DNA)]
EC50 ([1]; 1 mM MgCl2, room temperature): 4.15 nM | Kd [2]: 0.19 nM

GGGAAUGGAUCCACAUCUACGAAUUCGAUGGCGUUAGUGGGAAUGAUUCUGCCGAGUUCACUGCAGACUUGACGAAGCUU [V07]
EC50 ([1]; 1 mM MgCl2, room temperature): 17.3 nM

GGGAAUGGAUCCACAUCUACGAAUUCAGGCAGCGUAGAGGGUUCACUCUGCCGAGUUUCACUGCAGACUUGACGAAGCUU [V01]
EC50 ([1]; 1 mM MgCl2, room temperature): 19 nM

GGGAAUGGAUCCACAUCUACGAAUUCCGCGCGCGCUAACCUUGNGGNGNAAGUAUGUUCACUGCAGACUUGACGAAGCUU [V13]
EC50 ([1]; 1 mM MgCl2, sequence contains N): 8.32 nM

GGGAGCUCAGAAUAAACGCUCAAACGGUUCUGUGUGUGGACUAGCCGCGGCCGUUCGACAUGAGGCCCGGAUCCGGC [VEGF126 (RNA transcript of printed DNA)]
EC50 ([1]; 1 mM MgCl2, room temperature): 19.9 nM | Kd ([2]; unit not repeated for this value): 0.14 nM

GGGAAUGGAUCCACAUCUACGAAUUCCGCGCACGUAGGUUGGGUGUAACUGCGUUGUUCACUGCAGACUUGACGAAGCUU [V06]
EC50 ([1]; 1 mM MgCl2, printed sequence identical to V05): 36.9 nM

GGGAAUGGAUCCACAUCUACGAAUUCGGAUAUUCCGCGCACGUCAUUUCAUCAGCUUUCACUGCAGACUUGACGAAGCUU [V19]
EC50 ([1]; 1 mM MgCl2, room temperature): 7.61 nM

GGGAAUGGAUCCACAUCUACGAAUUCUUUGAAGAGGGUCAAUCCGCGCACGUUACGUUCACUGCAGACUUGACGAAGCUU [V03]
EC50 ([1]; 1 mM MgCl2, room temperature): 32.6 nM

GGGAAUGGAUCCACAUCUACGAAUUCCGCGCACGUAGGUUGGGUGUAACUGCGUUGUUCACUGCAGACUUGACGAAGCUU [V05]
EC50 ([1]; 1 mM MgCl2, room temperature): 15.3 nM

GGGAAUGGAUCCACAUCUACGAAUUCCGUUCUGCCGAGACUGCACGUGUGCUUGAAUUCACUGCAGACUUGACGAAGCUU [V09]
EC50 ([1]; 1 mM MgCl2, room temperature): 24.2 nM

GGGAAUGGAUCCACAUCUACGAAUUCGAGGGUCCGUCUGCCGAGUCUUGUAACACCUUCACUGCAGACUUGACGAAGCUU [V02]
EC50 ([1]; 1 mM MgCl2, room temperature): 21.3 nM
